{"source": "patent US10087225B2", "about": "“Formulation of MK2 inhibitor peptides” (MOERAE MATRIX, INC., priority 2015, dated 2018)", "experiment_in_all_cases": "Kinase Profiling Assay", "key": {"[1]": {"target": "BTK(h) (Homo sapiens, UniProt Q06187)", "sequence (Q06187 whole entry)": "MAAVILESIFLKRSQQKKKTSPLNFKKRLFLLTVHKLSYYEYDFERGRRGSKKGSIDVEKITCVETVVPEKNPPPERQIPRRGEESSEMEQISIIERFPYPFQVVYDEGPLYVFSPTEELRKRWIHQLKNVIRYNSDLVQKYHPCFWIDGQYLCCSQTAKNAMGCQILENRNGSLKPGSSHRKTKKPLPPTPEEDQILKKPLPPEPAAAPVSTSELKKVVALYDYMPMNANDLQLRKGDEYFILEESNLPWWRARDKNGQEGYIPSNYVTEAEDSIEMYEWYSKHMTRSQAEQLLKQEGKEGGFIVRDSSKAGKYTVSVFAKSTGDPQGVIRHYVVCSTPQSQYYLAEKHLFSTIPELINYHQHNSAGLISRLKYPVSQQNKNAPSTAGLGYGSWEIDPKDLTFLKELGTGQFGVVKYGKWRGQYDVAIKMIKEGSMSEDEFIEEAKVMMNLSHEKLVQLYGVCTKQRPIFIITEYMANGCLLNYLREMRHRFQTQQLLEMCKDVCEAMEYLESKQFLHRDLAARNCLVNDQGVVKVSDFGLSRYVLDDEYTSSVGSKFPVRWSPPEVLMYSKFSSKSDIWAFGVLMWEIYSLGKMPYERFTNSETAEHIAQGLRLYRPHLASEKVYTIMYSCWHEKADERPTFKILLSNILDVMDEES", "assay_type": "biochemical", "details": "100 μM"}, "[2]": {"target": "NEK6(h) (Homo sapiens, UniProt Q9HC98)", "sequence (Q9HC98 whole entry)": "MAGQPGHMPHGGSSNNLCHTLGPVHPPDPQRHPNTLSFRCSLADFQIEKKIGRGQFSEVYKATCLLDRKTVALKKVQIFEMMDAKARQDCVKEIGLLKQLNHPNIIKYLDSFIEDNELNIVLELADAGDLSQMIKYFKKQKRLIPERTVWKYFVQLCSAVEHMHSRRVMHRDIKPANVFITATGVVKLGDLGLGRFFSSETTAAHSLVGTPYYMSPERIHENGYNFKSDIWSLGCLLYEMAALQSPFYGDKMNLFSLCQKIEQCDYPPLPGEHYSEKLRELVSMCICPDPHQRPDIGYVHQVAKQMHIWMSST", "assay_type": "biochemical", "details": "100 μM"}, "[3]": {"target": "FGFR2(h) (Homo sapiens, UniProt P21802)", "assay_type": "biochemical", "details": "100 μM"}, "[4]": {"target": "TLK2(h) (Homo sapiens, UniProt Q86UE8)", "sequence (Q86UE8 whole entry)": "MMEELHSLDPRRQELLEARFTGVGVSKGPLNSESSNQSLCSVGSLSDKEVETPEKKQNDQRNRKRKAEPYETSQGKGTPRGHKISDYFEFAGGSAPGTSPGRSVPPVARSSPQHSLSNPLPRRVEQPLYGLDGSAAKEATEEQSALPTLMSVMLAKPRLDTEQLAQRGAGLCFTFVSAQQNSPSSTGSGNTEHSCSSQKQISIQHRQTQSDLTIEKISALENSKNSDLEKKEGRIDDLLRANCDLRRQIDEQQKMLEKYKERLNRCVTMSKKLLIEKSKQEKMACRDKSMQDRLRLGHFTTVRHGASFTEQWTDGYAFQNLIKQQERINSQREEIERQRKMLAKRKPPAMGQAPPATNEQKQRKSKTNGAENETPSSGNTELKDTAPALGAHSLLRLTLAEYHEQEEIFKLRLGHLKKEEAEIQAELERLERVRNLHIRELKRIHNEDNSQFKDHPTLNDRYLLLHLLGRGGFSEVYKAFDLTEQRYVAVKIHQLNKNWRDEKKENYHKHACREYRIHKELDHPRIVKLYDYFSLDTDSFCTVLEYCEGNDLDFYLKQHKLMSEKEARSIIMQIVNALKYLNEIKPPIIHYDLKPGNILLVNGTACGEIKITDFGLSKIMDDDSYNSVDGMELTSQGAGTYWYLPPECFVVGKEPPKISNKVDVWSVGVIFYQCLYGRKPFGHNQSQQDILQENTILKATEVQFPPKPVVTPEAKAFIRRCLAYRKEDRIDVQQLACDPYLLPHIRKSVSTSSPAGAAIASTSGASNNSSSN", "assay_type": "biochemical", "details": "100 μM"}, "[5]": {"target": "AMPKa1(h) (Homo sapiens, UniProt Q13131)", "assay_type": "biochemical", "details": "100 μM"}, "[6]": {"target": "MST3(h) (Homo sapiens, UniProt Q9Y6E0)", "sequence (Q9Y6E0 whole entry)": "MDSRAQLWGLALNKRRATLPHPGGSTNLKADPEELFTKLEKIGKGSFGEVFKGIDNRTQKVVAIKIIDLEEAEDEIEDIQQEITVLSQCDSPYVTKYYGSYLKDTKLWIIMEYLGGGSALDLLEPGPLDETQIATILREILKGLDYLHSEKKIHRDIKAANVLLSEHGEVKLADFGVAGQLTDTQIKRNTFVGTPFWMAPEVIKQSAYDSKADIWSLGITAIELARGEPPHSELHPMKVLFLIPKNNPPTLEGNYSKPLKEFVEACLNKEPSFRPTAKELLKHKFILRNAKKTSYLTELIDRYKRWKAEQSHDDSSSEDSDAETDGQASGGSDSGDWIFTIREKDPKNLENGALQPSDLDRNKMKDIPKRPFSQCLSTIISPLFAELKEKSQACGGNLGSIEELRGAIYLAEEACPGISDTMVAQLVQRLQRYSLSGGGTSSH", "assay_type": "biochemical", "details": "100 μM"}, "[7]": {"system": "p70S6K(h)", "assay_type": "biochemical, human", "details": "100 μM"}, "[8]": {"target": "Fms(Y969C)(h) (Homo sapiens, UniProt P07333, Y969C)", "assay_type": "biochemical"}, "[9]": {"target": "Ron(h) (Homo sapiens, UniProt Q04912)", "assay_type": "biochemical", "details": "100 μM"}, "[10]": {"target": "T1, MKK6(h) (Homo sapiens, UniProt P52564)", "T1 sequence (P52564 1-334)": "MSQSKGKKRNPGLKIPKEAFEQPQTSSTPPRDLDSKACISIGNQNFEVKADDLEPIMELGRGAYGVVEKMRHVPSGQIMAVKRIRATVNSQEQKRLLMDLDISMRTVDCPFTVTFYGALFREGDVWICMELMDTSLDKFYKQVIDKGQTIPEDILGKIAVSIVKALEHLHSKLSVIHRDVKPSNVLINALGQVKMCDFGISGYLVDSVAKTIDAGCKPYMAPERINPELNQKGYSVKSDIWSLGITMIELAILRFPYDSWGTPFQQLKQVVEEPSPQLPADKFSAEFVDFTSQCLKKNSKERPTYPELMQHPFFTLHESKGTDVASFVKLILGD", "assay_type": "biochemical", "details": "100 μM"}, "[11]": {"target": "T2, MST1(h) (Homo sapiens, UniProt Q13043)", "T2 sequence (Q13043 1-487)": "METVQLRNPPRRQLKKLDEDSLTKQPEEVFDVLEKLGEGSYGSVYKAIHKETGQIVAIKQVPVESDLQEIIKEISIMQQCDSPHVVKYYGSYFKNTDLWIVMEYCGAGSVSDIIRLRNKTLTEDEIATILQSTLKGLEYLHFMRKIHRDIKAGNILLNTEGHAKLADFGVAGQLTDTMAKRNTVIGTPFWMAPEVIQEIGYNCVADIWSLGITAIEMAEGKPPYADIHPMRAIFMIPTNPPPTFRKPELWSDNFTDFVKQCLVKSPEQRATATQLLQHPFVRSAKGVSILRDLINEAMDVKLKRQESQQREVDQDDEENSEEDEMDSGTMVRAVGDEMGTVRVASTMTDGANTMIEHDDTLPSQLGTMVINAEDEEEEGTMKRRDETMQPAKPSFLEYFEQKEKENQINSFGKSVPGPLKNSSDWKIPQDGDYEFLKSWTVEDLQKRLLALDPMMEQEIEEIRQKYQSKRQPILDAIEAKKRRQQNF", "assay_type": "biochemical", "details": "100 μM"}, "[12]": {"target": "Pim-3(h) (Homo sapiens, UniProt Q86V86)", "assay_type": "biochemical", "details": "100 μM"}, "[13]": {"target": "PKCα(h) (Homo sapiens, UniProt P17252)", "assay_type": "biochemical", "details": "100 μM"}, "[14]": {"target": "MINK(h) (Homo sapiens, UniProt Q8N4C8)", "sequence (Q8N4C8 whole entry)": "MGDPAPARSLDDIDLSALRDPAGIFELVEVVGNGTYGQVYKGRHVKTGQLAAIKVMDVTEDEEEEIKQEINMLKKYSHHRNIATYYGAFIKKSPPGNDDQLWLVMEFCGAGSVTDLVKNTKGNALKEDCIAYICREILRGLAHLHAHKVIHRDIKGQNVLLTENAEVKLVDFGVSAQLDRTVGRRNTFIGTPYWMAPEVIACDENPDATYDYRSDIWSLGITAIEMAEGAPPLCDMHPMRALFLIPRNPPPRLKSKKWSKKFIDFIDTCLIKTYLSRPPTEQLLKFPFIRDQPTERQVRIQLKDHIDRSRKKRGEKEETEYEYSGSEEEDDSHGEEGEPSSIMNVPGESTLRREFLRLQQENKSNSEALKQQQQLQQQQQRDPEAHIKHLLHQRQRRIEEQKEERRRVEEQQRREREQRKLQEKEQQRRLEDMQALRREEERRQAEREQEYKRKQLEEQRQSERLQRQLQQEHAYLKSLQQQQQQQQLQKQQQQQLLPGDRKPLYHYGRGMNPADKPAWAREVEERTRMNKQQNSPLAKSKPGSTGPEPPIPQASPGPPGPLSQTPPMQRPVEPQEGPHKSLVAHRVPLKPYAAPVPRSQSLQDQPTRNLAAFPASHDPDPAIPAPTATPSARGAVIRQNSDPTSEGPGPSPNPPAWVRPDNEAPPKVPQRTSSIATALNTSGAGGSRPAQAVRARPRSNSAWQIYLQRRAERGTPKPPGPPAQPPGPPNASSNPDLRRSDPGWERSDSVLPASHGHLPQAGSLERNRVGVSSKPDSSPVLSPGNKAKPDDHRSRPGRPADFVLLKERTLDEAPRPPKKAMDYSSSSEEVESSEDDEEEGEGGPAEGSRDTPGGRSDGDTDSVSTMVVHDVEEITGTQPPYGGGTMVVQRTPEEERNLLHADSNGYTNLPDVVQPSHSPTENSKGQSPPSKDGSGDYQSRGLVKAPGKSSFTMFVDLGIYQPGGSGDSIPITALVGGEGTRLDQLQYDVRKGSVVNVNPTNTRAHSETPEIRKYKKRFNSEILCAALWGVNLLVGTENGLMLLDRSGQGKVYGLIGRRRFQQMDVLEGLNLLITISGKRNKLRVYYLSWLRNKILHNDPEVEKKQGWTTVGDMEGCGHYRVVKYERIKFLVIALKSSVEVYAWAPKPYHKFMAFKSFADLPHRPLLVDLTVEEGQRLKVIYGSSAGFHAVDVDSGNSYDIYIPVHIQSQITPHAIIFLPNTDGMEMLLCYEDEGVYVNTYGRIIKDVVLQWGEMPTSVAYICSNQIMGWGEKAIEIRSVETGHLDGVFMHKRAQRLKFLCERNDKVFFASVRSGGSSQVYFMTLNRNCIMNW", "assay_type": "biochemical"}, "[15]": {"target": "cKit(V560G)(h) (Homo sapiens, UniProt P10721, V560G)", "assay_type": "biochemical"}, "[16]": {"target": "T3, MST2(h) (Homo sapiens, UniProt Q13188)", "T3 sequence (Q13188 1-491)": "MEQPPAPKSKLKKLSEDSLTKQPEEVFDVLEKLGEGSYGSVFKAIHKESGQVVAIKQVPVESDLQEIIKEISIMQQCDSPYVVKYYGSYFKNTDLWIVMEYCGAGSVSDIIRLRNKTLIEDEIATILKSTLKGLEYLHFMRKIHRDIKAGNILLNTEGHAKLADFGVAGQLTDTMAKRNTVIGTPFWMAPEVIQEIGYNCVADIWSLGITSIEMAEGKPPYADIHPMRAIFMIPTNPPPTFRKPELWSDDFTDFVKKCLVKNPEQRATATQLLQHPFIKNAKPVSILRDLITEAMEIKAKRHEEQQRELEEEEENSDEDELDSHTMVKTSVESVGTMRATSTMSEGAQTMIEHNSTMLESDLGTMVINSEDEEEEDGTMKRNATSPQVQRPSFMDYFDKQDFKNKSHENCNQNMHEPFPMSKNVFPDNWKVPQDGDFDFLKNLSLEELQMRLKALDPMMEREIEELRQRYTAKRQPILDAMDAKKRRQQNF", "assay_type": "biochemical"}, "[17]": {"target": "Ret(V804M)(h) (Homo sapiens, UniProt P07949, V804M)", "assay_type": "biochemical"}, "[18]": {"target": "T4, SGK(h) (Homo sapiens, UniProt O00141)", "T4 sequence (O00141 1-431)": "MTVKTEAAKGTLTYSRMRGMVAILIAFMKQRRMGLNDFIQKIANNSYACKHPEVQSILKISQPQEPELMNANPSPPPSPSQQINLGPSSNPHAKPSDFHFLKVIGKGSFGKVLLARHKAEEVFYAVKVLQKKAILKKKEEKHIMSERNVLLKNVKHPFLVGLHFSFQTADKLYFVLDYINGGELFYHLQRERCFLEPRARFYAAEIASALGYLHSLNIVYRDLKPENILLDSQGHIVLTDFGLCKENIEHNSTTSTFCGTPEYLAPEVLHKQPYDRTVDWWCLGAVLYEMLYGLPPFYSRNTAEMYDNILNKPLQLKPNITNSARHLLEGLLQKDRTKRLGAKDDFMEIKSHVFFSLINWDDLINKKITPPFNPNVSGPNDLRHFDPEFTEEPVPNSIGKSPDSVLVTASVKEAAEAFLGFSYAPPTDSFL", "assay_type": "biochemical"}}, "data": [{"substance": "YARAAARQARAKALNRQLGVA (Mammalian) [MMI-0200]", "values": [{"measurement": "% activity", "setting": "[1]", "result": 100, "unit": "%"}, {"measurement": "% activity", "setting": "[2]", "result": 98, "unit": "%"}, {"measurement": "% activity", "setting": "[3]", "result": 73, "unit": "%"}, {"measurement": "% activity", "setting": "[4]", "result": 129, "unit": "%"}, {"measurement": "% activity", "setting": "[5]", "result": 108, "unit": "%"}, {"measurement": "% activity", "setting": "[6]", "result": 95, "unit": "%"}, {"measurement": "% activity", "setting": "[7]", "result": 84, "unit": "%"}, {"measurement": "% activity", "setting": "[8]; 100 μM", "result": 88, "unit": "%"}, {"measurement": "% activity", "setting": "[9]", "result": 120, "unit": "%"}, {"measurement": "% activity", "setting": "[10]", "result": 98, "unit": "%"}, {"measurement": "% activity", "setting": "[11]", "result": 72, "unit": "%"}, {"measurement": "% activity", "setting": "[12]", "result": 94, "unit": "%"}, {"measurement": "% activity", "setting": "[13]", "result": 100, "unit": "%"}]}, {"substance": "H-YARAAARQARAKALARQLGVAA-OH [MMI-0100]", "values": [{"measurement": "activity at 100 µM", "setting": "[14]", "result": 96, "unit": "%"}, {"measurement": "activity at 100 µM", "setting": "[15]", "result": 94, "unit": "%"}, {"measurement": "activity at 100 µM", "setting": "[16]", "result": 98, "unit": "%"}, {"measurement": "activity at 100 µM", "setting": "[17]", "result": 92, "unit": "%"}, {"measurement": "activity at 100 µM", "setting": "[8]", "result": 126, "unit": "%"}, {"measurement": "activity at 100 µM", "setting": "[18]", "result": 128, "unit": "%"}]}, {"substance": "HRRIKAWLKKIKALARQLGVAA (Mammalian) [MMI-0500]", "values": [{"measurement": "% activity", "setting": "[1]", "result": 18, "unit": "%"}, {"measurement": "% activity", "setting": "[14]; 100 μM", "result": 5, "unit": "%"}, {"measurement": "% activity", "setting": "[2]", "result": 49, "unit": "%"}, {"measurement": "% activity", "setting": "[3]", "result": 12, "unit": "%"}, {"measurement": "% activity", "setting": "[4]", "result": 133, "unit": "%"}, {"measurement": "% activity", "setting": "[15]; 100 μM", "result": 198, "unit": "%"}, {"measurement": "% activity", "setting": "[5]", "result": 35, "unit": "%"}, {"measurement": "% activity", "setting": "[6]", "result": 4, "unit": "%"}, {"measurement": "% activity", "setting": "[7]", "result": 3, "unit": "%"}, {"measurement": "% activity", "setting": "[16]; 100 μM", "result": 2, "unit": "%"}, {"measurement": "% activity", "setting": "[17]; 100 μM", "result": 36, "unit": "%"}, {"measurement": "% activity", "setting": "[18]; 100 μM", "result": 2, "unit": "%"}, {"measurement": "% activity", "setting": "[9]", "result": 46, "unit": "%"}, {"measurement": "% activity", "setting": "[10]", "result": 18, "unit": "%"}, {"measurement": "% activity", "setting": "[11]", "result": 3, "unit": "%"}, {"measurement": "% activity", "setting": "[12]", "result": 37, "unit": "%"}, {"measurement": "% activity", "setting": "[13]", "result": 3, "unit": "%"}]}]}
